This passage reports IC50 (µg/ml), pseudovirus neutralization, IC50, pseudovirus neutralization and IC50 results from patent US20250320281A1.

Common to all, as to test: cell-based or functional assay
Assay [1] addresses HIV-1 Env of isolate TRO.11 (Acute), clade B, on pseudovirus (HIV-1).
The target in assay [2] is HIV-1 Env of isolate MGRM-D-020 (clade D pseudovirus) (HIV-1).
Assay [3] has as its target HIV-1 Env of isolate MGRM-D-026 (clade D pseudovirus) (HIV-1).
Assay [4] addresses HIV-1 Env of isolate MGRM-Chronic-B-008, clade B, on pseudovirus (HIV-1).
The target of assay [5] is HIV-1 APV-13 envelope glycoprotein (Env) on pseudovirus (HIV-1).
The target of assay [6] is HIV-1 Env of isolate 92UG005 (clade D pseudovirus) (HIV-1).
The target in assay [7] is HIV-1 Env of isolate VLGCB3, clade B, on pseudovirus (HIV-1).
For assay [8], the target named is HIV-1 Env of isolate MGRM-D-014 (clade D pseudovirus) (HIV-1).
Assay [9] deals with HIV-1 IAVI-C22 envelope glycoprotein (Env) on pseudovirus (HIV-1).
Assay [10] concerns the target HIV-1 Env of pseudovirus MGRM-G-024 (HIV-1, clade G isolate MGRM-G-024).
Assay [11] addresses HIV-1 Env of isolate 92RW021 (clade A pseudovirus) (HIV-1).
For assay [12], the target named is HIV-1 Env of isolate MGRM-D-003 (clade D pseudovirus) (HIV-1).
Assay [13] deals with HIV-1 Env of pseudovirus MGRM-AG-006 (clade CRF_AG) (HIV-1).
In assay [14] the target is HIV-1 Env of pseudovirus MGRM-F1-014 (HIV-1).
Assay [15] has as its target HIV-1 93IN905 envelope glycoprotein (Env) on pseudovirus (HIV-1).
The target of assay [16] is HIV-1 92UG024 envelope glycoprotein (Env) on pseudovirus (HIV-1).
The target in assay [17] is HIV-1 Env of isolate 98CN009 (CRF07 BC) (HIV-1 isolate 98CN009).
Assay [18] deals with HIV-1 Env of pseudovirus MGRM-AE-001 (clade CRF01_AE) (HIV-1).
The target of assay [19] is HIV-1 Env of isolate PVO.4 (Acute), clade B, on pseudovirus (HIV-1).
The target in assay [20] is HIV-1 Env of pseudovirus MGRM-Chronic-B-012 (HIV-1).
For assay [21], the target named is HIV-1 Env of isolate LAVI_C22 (HIV-1).
For assay [22], the target named is HIV-1 Env of isolate CAAN.A2 (Acute), clade B, on pseudovirus (HIV-1).
Assay [23] addresses HIV-1 Env of pseudovirus MGRM-F1-010 (HIV-1).
The target in assay [24] is HIV-1 Env of isolate LAVI_C3 (HIV-1).

b12 (antibody): the IC50 (µg/ml), pseudovirus neutralization was more than 50 µg/mL in assay [1]; more than 50 µg/mL in assay [2]; 1.55 µg/mL in assay [3]; 2.82 µg/mL in assay [4]; more than 50 µg/mL in [6]; 0.15 µg/mL in [7]. In addition, the IC50 (µg/ml), pseudovirus neutralization in assay [8] was more than 50 µg/mL; in assay [10], 2.38 µg/mL; in [11] it was more than 50 µg/mL; in assay [12], more than 50 µg/mL; in assay [14], more than 50 µg/mL; in assay [17], 1.52 µg/mL. The IC50 (µg/ml), pseudovirus neutralization in assay [19], in [20], in [22] and in [23] was more than 50 µg/mL in each case. Moreover, the IC50, pseudovirus neutralization was more than 25 µg/mL in [5], 3.6 µg/mL in [9], 34.1 µg/mL in assay [15] and 49.1 µg/mL in [16]. Further, the IC50 was more than 50 µg/mL in [13], 25.9 µg/mL in [18], 7.64 µg/mL in assay [21] and 0.94 µg/mL in assay [24].

Consider 2F5 (antibody), for which the IC50 (µg/ml), pseudovirus neutralization in assay [1] is more than 50 µg/mL; in assay [2], more than 50 µg/mL; in assay [3] it was 4.37 µg/mL; in assay [4], more than 50 µg/mL; in [6], 8.61 µg/mL; in assay [7], more than 50 µg/mL. Moreover, the IC50 (µg/ml), pseudovirus neutralization is 2.22 µg/mL in assay [8]; 1.07 µg/mL in assay [10]; 4.16 µg/mL in assay [11]; more than 50 µg/mL in assay [12]; 15.1 µg/mL in assay [14]; more than 50 µg/mL in assay [17]. The IC50 (µg/ml), pseudovirus neutralization in [19] was more than 50 µg/mL; in [20], 17.6 µg/mL; in [22] it was 23.1 µg/mL; in assay [23] it was 14.6 µg/mL. Moreover, the IC50, pseudovirus neutralization in assay [5] is 2.8 µg/mL; in assay [9], more than 50 µg/mL; in assay [15] it was more than 50 µg/mL; in assay [16], 1.27 µg/mL. Also, the IC50 in [13] is 0.85 µg/mL; in assay [18] it was 0.29 µg/mL; in assay [21], more than 50 µg/mL; in [24] it was more than 50 µg/mL.

In the case of 1495_C14 (PGC14) (antibody), the IC50 (µg/ml), pseudovirus neutralization in assay [1] was more than 50 µg/mL; in assay [2], more than 50 µg/mL; in assay [3], more than 50 µg/mL; in [4], more than 50 µg/mL; in assay [6], more than 50 µg/mL; in [7] it was 21 µg/mL. The IC50 (µg/ml), pseudovirus neutralization in [8] was 48 µg/mL; in [10], more than 50 µg/mL; in assay [11], more than 50 µg/mL; in [12], more than 50 µg/mL; in [14] it was more than 50 µg/mL; in assay [17], 43 µg/mL. Moreover, the IC50 (µg/ml), pseudovirus neutralization in [19], in assay [20], in assay [22] and in [23] was more than 50 µg/mL throughout. Besides, the IC50, pseudovirus neutralization in assay [5] is more than 50 µg/mL; in assay [9] it was 9.5 µg/mL; in assay [15] it was more than 50 µg/mL; in [16] it was more than 50 µg/mL. For the same substance, the IC50 in assay [13] was more than 50 µg/mL; in assay [18], more than 50 µg/mL; in assay [21], 25 µg/mL; in [24], 12 µg/mL.
